US20220340666A1 (published 2022)
Where a chain is given by its changes, count along the chain named.

B1: G9.2-17 Fab (Fab, V domains shown)
VH: EVQLVESGGGLVQPGGSLRLSCAASGFTVSSSSIHWVRQAPGKGLEWVAYISSSSGYTYYADSVKGRFTISADTSKNTAYLQMNSLRAEDTAVYYCARYWSYPSWWPYRGMDYWGQGTLVTVSS
VL: DIQMTQSPSSLSASVGDRVTITCRASQSVSSAVAWYQQKPGKAPKLLIYSASSLYSGVPSRFSGSRSGTDFTLTISSLQPEDFATYYCQQSSTDPITFGQGTKVEIKR
B2: G9.1-6 Fab (Fab, V domains shown)
VH: EVQLVESGGGLVQPGGSLRLSCAASGFTLSSSSIHWVRQAPGKGLEWVASIYSSYGSTSYADSVKGRFTISADTSKNTAYLQMNSLRAEDTAVYYCARSSHWYMYWSYWGWYIGMDYWGQGTLVTVSS
VL: B1 VL with S91Y, S92H, T93S, D94S, P95L, I96F
B3: G9.2-15 Fab (Fab, V domains shown)
VH: EVQLVESGGGLVQPGGSLRLSCAASGFTVSSSSIHWVRQAPGKGLEWVASIYSSSGYTSYADSVKGRFTISADTSKNTAYLQMNSLRAEDTAVYYCARNVENYPYWAWPWGYYGAIDYWGQGTLVTVSS
VL: B1 VL with T93W, D94G, P95L
B4: G9.2-3 Fab (Fab, V domains shown)
VH: EVQLVESGGGLVQPGGSLRLSCAASGFTFSSSSIHWVRQAPGKGLEWVASISSSSGSTSYADSVKGRFTISADTSKNTAYLQMNSLRAEDTAVYYCARPAYSYPYYYFHYGAMDYWGQGTLVTVSS
VL: B1 VL with T93S, D94S, P95L
B5: G9.1-5 Fab (Fab, V domains shown)
VH: EVQLVESGGGLVQPGGSLRLSCAASGFTIYYSSIHWVRQAPGKGLEWVASISSSYGSTYYADSVKGRFTISADTSKNTAYLQMNSLRAEDTAVYYCARSVSWYPYYYYYGYGSGLDYWGQGTLVTVSS
VL: DIQMTQSPSSLSASVGDRVTITCRASQSVSSAVAWYQQKPGKAPKLLIYSASSLYSGVPSRFSGSRSGTDFTLTISSLQPEDFATYYCQQYYGWFYPVTFGQGTKVEIKR
B6: G9.2-17mut6 Fab (Fab, V domains shown)
VH: B1 VH with W106S
VL: B1 VL
B7: G9.2-1 Fab (Fab, V domains shown)
VH: EVQLVESGGGLVQPGGSLRLSCAASGFTLYSSSIHWVRQAPGKGLEWVASIYSSSGYTYYADSVKGRFTISADTSKNTAYLQMNSLRAEDTAVYYCARTYTWKSSWSYQTGYGLDYWGQGTLVTVSS
VL: DIQMTQSPSSLSASVGDRVTITCRASQSVSSAVAWYQQKPGKAPKLLIYSASSLYSGVPSRFSGSRSGTDFTLTISSLQPEDFATYYCQQYKSKYPFTFGQGTKVEIKR
B8: G9.1-11 Fab (Fab, V domains shown)
VH: EVQLVESGGGLVQPGGSLRLSCAASGFTVYSSSIHWVRQAPGKGLEWVASIYSYYGYTSYADSVKGRFTISADTSKNTAYLQMNSLRAEDTAVYYCARSTEGYDRWGYYSSYWSSGLDYWGQGTLVTVSS
VL: B1 VL with S91T, S92Y, T93W, D94G, P95L
B9: G9.1-8 Fab (Fab, V domains shown)
VH: EVQLVESGGGLVQPGGSLRLSCAASGFTVSSSSIHWVRQAPGKGLEWVAYIYPYSGYTSYADSVKGRFTISADTSKNTAYLQMNSLRAEDTAVYYCARYSTYSWGGIGKWVWGMDYWGQGTLVTVSS
VL: B5 VL with Y91S, G93Y, W94D, F95S, Y96N, V98I

Experiments:
[1] = target: T1, human Galectin-9 CRD2 (residues 218-355), biotinylated (UniProt O00182 218-355, biotinylated in vitro with BirA (Avitag)); assay: SPR
T1 sequence (O00182 218-355): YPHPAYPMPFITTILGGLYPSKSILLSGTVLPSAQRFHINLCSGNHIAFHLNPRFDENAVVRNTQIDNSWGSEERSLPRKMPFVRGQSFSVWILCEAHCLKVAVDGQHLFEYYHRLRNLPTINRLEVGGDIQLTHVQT

[2] = target: T1, human Galectin-9 CRD2 (residues …); assay: bead-based binding assay; apparent Kd
[3] = target: T1, human Galectin-9 CRD2 (residues …); assay: SPR; remark: listed apart in the source
[4] = target: human Galectin-9 CRD1 (residues 1-148), biotinylated (UniProt O00182 1-148, biotinylated in vitro with BirA (Avitag)); assay: bead-based binding assay; apparent Kd; plots and legend state CRD1
Chain of human Galectin-9 CRD1 (residues 1-148), biotinylated (O00182 1-148): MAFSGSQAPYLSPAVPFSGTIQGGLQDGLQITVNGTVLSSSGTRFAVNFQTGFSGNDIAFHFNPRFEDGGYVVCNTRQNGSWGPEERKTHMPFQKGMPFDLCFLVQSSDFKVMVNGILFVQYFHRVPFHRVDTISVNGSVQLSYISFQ

Row | Binder | Kd [2] [nM] | Kd [4] [nM] | also measured
1 | B1 | 0.76 |  | Kd [1]: 0.232 nM; Kd [3]: 0.219 nM
2 | B2 |  | 29.2 | 
3 | B3 | 0.71 |  | Kd [1]: 4.8 nM
4 | B4 | 1380 |  | 
5 | B5 |  | 30.4 | 
6 | B6 |  |  | Kd [3]: 0.154 nM
7 | B7 | 4170 |  | 
8 | B8 |  | 20.4 | 
9 | B9 |  | 9.8 | 
